According to patent US20090291890A1 (published 2009):

Molecular target: Factor X (FX) (Homo sapiens (Human)) (UniProt P00742)
Sequence (P00742 41-488 limits assumed): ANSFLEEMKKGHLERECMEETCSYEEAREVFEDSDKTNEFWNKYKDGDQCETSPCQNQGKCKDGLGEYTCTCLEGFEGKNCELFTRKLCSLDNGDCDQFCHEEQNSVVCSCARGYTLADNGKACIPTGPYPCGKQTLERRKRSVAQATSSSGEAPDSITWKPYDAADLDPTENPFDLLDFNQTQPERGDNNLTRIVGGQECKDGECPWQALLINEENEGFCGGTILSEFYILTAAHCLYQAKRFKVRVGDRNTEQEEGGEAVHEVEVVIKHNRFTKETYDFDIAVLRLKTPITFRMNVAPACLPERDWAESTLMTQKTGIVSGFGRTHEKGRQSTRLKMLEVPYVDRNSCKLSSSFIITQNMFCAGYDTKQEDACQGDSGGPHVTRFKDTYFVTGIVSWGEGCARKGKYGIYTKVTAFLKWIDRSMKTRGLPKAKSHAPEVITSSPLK

B1: FVIIa variant H373F (enzyme)
chain: ANAFLEELRPGSLERECKEEQCSFEEAREIFKDAERTKLFWISYSDGDQCASSPCQNGGSCKDQLQSYICFCLPAFEGRNCETHKDDQLICVNENGGCEQYCSDHTGTKRSCRCHEGYSLLADGVSCTPTVEYPCGKIPILEKRNASKPQGRIVGGKVCPKGECPWQVLLLVNGAQLCGGTLINTIWVVSAAHCFDKIKNWRNLIAVLGEHDLSEHDGDEQSRRVAQVIIPSTYVPGTTNHDIALLRLHQPVVLTDHVVPLCLPERTFSERTLAFVRFSLVSGWGQLLDRGATALELMVLNVPRLMTQDCLQQSRKVGDSPNITEYMFCAGYSDGSKDSCKGDSGGPHATHYRGTWYLTGIVSWGQGCATVGFFGVYTRVSQYIEWLQKLMRSEPRPGVLLRAPFP
kcat/KM, TF-Dependent Indirect Assay: 5.11e+07 M⁻¹ s⁻¹

B2: FVIIa variant Q366D (enzyme)
chain: ANAFLEELRPGSLERECKEEQCSFEEAREIFKDAERTKLFWISYSDGDQCASSPCQNGGSCKDQLQSYICFCLPAFEGRNCETHKDDQLICVNENGGCEQYCSDHTGTKRSCRCHEGYSLLADGVSCTPTVEYPCGKIPILEKRNASKPQGRIVGGKVCPKGECPWQVLLLVNGAQLCGGTLINTIWVVSAAHCFDKIKNWRNLIAVLGEHDLSEHDGDEQSRRVAQVIIPSTYVPGTTNHDIALLRLHQPVVLTDHVVPLCLPERTFSERTLAFVRFSLVSGWGQLLDRGATALELMVLNVPRLMTQDCLQQSRKVGDSPNITEYMFCAGYSDGSKDSCKGDSGGPHATHYRGTWYLTGIVSWGDGCATVGHFGVYTRVSQYIEWLQKLMRSEPRPGVLLRAPFP
kcat/KM, TF-Dependent Indirect Assay: 1.88e+07 M⁻¹ s⁻¹

B3: FVIIa variant Q366N (enzyme)
chain: ANAFLEELRPGSLERECKEEQCSFEEAREIFKDAERTKLFWISYSDGDQCASSPCQNGGSCKDQLQSYICFCLPAFEGRNCETHKDDQLICVNENGGCEQYCSDHTGTKRSCRCHEGYSLLADGVSCTPTVEYPCGKIPILEKRNASKPQGRIVGGKVCPKGECPWQVLLLVNGAQLCGGTLINTIWVVSAAHCFDKIKNWRNLIAVLGEHDLSEHDGDEQSRRVAQVIIPSTYVPGTTNHDIALLRLHQPVVLTDHVVPLCLPERTFSERTLAFVRFSLVSGWGQLLDRGATALELMVLNVPRLMTQDCLQQSRKVGDSPNITEYMFCAGYSDGSKDSCKGDSGGPHATHYRGTWYLTGIVSWGNGCATVGHFGVYTRVSQYIEWLQKLMRSEPRPGVLLRAPFP
kcat/KM, TF-Dependent Indirect Assay: 5.64e+07 M⁻¹ s⁻¹

B4: FVIIa variant H373A (enzyme)
chain: ANAFLEELRPGSLERECKEEQCSFEEAREIFKDAERTKLFWISYSDGDQCASSPCQNGGSCKDQLQSYICFCLPAFEGRNCETHKDDQLICVNENGGCEQYCSDHTGTKRSCRCHEGYSLLADGVSCTPTVEYPCGKIPILEKRNASKPQGRIVGGKVCPKGECPWQVLLLVNGAQLCGGTLINTIWVVSAAHCFDKIKNWRNLIAVLGEHDLSEHDGDEQSRRVAQVIIPSTYVPGTTNHDIALLRLHQPVVLTDHVVPLCLPERTFSERTLAFVRFSLVSGWGQLLDRGATALELMVLNVPRLMTQDCLQQSRKVGDSPNITEYMFCAGYSDGSKDSCKGDSGGPHATHYRGTWYLTGIVSWGQGCATVGAFGVYTRVSQYIEWLQKLMRSEPRPGVLLRAPFP
kcat/KM, TF-Dependent Indirect Assay: 3.11e+07 M⁻¹ s⁻¹

B5: FVIIa variant Q366T (enzyme)
chain: ANAFLEELRPGSLERECKEEQCSFEEAREIFKDAERTKLFWISYSDGDQCASSPCQNGGSCKDQLQSYICFCLPAFEGRNCETHKDDQLICVNENGGCEQYCSDHTGTKRSCRCHEGYSLLADGVSCTPTVEYPCGKIPILEKRNASKPQGRIVGGKVCPKGECPWQVLLLVNGAQLCGGTLINTIWVVSAAHCFDKIKNWRNLIAVLGEHDLSEHDGDEQSRRVAQVIIPSTYVPGTTNHDIALLRLHQPVVLTDHVVPLCLPERTFSERTLAFVRFSLVSGWGQLLDRGATALELMVLNVPRLMTQDCLQQSRKVGDSPNITEYMFCAGYSDGSKDSCKGDSGGPHATHYRGTWYLTGIVSWGTGCATVGHFGVYTRVSQYIEWLQKLMRSEPRPGVLLRAPFP
kcat/KM, TF-Dependent Indirect Assay: 3.42e+07 M⁻¹ s⁻¹

B6: FVIIa variant S52A (enzyme)
chain: ANAFLEELRPGSLERECKEEQCSFEEAREIFKDAERTKLFWISYSDGDQCAASPCQNGGSCKDQLQSYICFCLPAFEGRNCETHKDDQLICVNENGGCEQYCSDHTGTKRSCRCHEGYSLLADGVSCTPTVEYPCGKIPILEKRNASKPQGRIVGGKVCPKGECPWQVLLLVNGAQLCGGTLINTIWVVSAAHCFDKIKNWRNLIAVLGEHDLSEHDGDEQSRRVAQVIIPSTYVPGTTNHDIALLRLHQPVVLTDHVVPLCLPERTFSERTLAFVRFSLVSGWGQLLDRGATALELMVLNVPRLMTQDCLQQSRKVGDSPNITEYMFCAGYSDGSKDSCKGDSGGPHATHYRGTWYLTGIVSWGQGCATVGHFGVYTRVSQYIEWLQKLMRSEPRPGVLLRAPFP
kcat/KM, TF-Dependent Indirect Assay: 4.66e+07 M⁻¹ s⁻¹

B7: FVIIa variant Q366V (enzyme)
chain: ANAFLEELRPGSLERECKEEQCSFEEAREIFKDAERTKLFWISYSDGDQCASSPCQNGGSCKDQLQSYICFCLPAFEGRNCETHKDDQLICVNENGGCEQYCSDHTGTKRSCRCHEGYSLLADGVSCTPTVEYPCGKIPILEKRNASKPQGRIVGGKVCPKGECPWQVLLLVNGAQLCGGTLINTIWVVSAAHCFDKIKNWRNLIAVLGEHDLSEHDGDEQSRRVAQVIIPSTYVPGTTNHDIALLRLHQPVVLTDHVVPLCLPERTFSERTLAFVRFSLVSGWGQLLDRGATALELMVLNVPRLMTQDCLQQSRKVGDSPNITEYMFCAGYSDGSKDSCKGDSGGPHATHYRGTWYLTGIVSWGVGCATVGHFGVYTRVSQYIEWLQKLMRSEPRPGVLLRAPFP
kcat/KM, TF-Dependent Indirect Assay: 6.59e+07 M⁻¹ s⁻¹

B8: FVIIa variant Q366S (enzyme)
chain: ANAFLEELRPGSLERECKEEQCSFEEAREIFKDAERTKLFWISYSDGDQCASSPCQNGGSCKDQLQSYICFCLPAFEGRNCETHKDDQLICVNENGGCEQYCSDHTGTKRSCRCHEGYSLLADGVSCTPTVEYPCGKIPILEKRNASKPQGRIVGGKVCPKGECPWQVLLLVNGAQLCGGTLINTIWVVSAAHCFDKIKNWRNLIAVLGEHDLSEHDGDEQSRRVAQVIIPSTYVPGTTNHDIALLRLHQPVVLTDHVVPLCLPERTFSERTLAFVRFSLVSGWGQLLDRGATALELMVLNVPRLMTQDCLQQSRKVGDSPNITEYMFCAGYSDGSKDSCKGDSGGPHATHYRGTWYLTGIVSWGSGCATVGHFGVYTRVSQYIEWLQKLMRSEPRPGVLLRAPFP
kcat/KM, TF-Dependent Indirect Assay: 2.7e+07 M⁻¹ s⁻¹

B9: FVIIa variant Q366E (enzyme)
chain: ANAFLEELRPGSLERECKEEQCSFEEAREIFKDAERTKLFWISYSDGDQCASSPCQNGGSCKDQLQSYICFCLPAFEGRNCETHKDDQLICVNENGGCEQYCSDHTGTKRSCRCHEGYSLLADGVSCTPTVEYPCGKIPILEKRNASKPQGRIVGGKVCPKGECPWQVLLLVNGAQLCGGTLINTIWVVSAAHCFDKIKNWRNLIAVLGEHDLSEHDGDEQSRRVAQVIIPSTYVPGTTNHDIALLRLHQPVVLTDHVVPLCLPERTFSERTLAFVRFSLVSGWGQLLDRGATALELMVLNVPRLMTQDCLQQSRKVGDSPNITEYMFCAGYSDGSKDSCKGDSGGPHATHYRGTWYLTGIVSWGEGCATVGHFGVYTRVSQYIEWLQKLMRSEPRPGVLLRAPFP
kcat/KM, TF-Dependent Indirect Assay: 4.77e+07 M⁻¹ s⁻¹

B10: FVIIa variant S60A (enzyme)
chain: ANAFLEELRPGSLERECKEEQCSFEEAREIFKDAERTKLFWISYSDGDQCASSPCQNGGACKDQLQSYICFCLPAFEGRNCETHKDDQLICVNENGGCEQYCSDHTGTKRSCRCHEGYSLLADGVSCTPTVEYPCGKIPILEKRNASKPQGRIVGGKVCPKGECPWQVLLLVNGAQLCGGTLINTIWVVSAAHCFDKIKNWRNLIAVLGEHDLSEHDGDEQSRRVAQVIIPSTYVPGTTNHDIALLRLHQPVVLTDHVVPLCLPERTFSERTLAFVRFSLVSGWGQLLDRGATALELMVLNVPRLMTQDCLQQSRKVGDSPNITEYMFCAGYSDGSKDSCKGDSGGPHATHYRGTWYLTGIVSWGQGCATVGHFGVYTRVSQYIEWLQKLMRSEPRPGVLLRAPFP
kcat/KM, TF-Dependent Indirect Assay: 5.15e+07 M⁻¹ s⁻¹
